In patent publication US20120263728A1:
Substitutions are numbered along the chain they refer to.

B1: CA167_01080 (antibody, from another filing, rabbit IgG1, V domains shown)
VH: QSLEESGGRLVTPETPLTLTCTASGIDLSKWPMTWVRQAPGKGLEWIGIIGRSGSTNYASWAKGRFTISKTSTTVDLKMTSPTTEDTATYFCARGGSYYDLWGQGTLVTVS
VL: AQVLTQTASPVSAAVGNTVTITCQSSQSVWKNNDLSWYQQKLGQPPKLLIYYASTLASGVSSRFKASGSGTQFTLTISDVQCDDAGTYYCVGSYDCSSADCNAFGGGTKVVVK
B2: CA167_00932 (antibody, from another filing, rabbit IgG1, V domains shown)
VH: QSLEESGGRLVTPGTPLTLTCTVSGFSLSRYWMSWVRQAPGKGLEWIGNIGGGSGSTLYAPWAKGRSTISKTSTTVDLKITSPTTEDTATYFCGRYVKNGGGYRLDLWGPGTLVTVS
VL: AAVLTQTPSSVSAAVGGTVTIKCQSSQSVYNNNEFSWYQQKPGQPPKLLIYDASKLASGVPSRFSGSGSGTQFTLTISGVQCDDVATYYCLGGYNDDTNRWAFGGGTEVVVE
B3: CA167_00983 (antibody, from another filing, rabbit IgG1, V domains shown)
VH: QSVEESGGRLVTPGTPLTLTCTVSGFSLSNYAMSWVRQAPGKGLEWIGIIGKSGSTAYASWAKGRFTISRTSTTVDLEITSPTTEDTATYFCVRFVLLWGPGTLVTVS
VL: B1 VL with N17G, T22N, W30Y, S36A, L42P, A66G, Q72E, V80A, G86A, V91L

Assays:
[1] = target: human Nav1.7 channel (type IX voltage-gated sodium channel alpha subunit) (human) (UniProt Q15858); test: cell-based or functional assay
[2] = target: recombinant rat Nav1.7 channels expressed in HEK cells (rat) (UniProt O08562); test: cell-based or functional assay
Sequence of UniProt O08562 (O08562 whole entry): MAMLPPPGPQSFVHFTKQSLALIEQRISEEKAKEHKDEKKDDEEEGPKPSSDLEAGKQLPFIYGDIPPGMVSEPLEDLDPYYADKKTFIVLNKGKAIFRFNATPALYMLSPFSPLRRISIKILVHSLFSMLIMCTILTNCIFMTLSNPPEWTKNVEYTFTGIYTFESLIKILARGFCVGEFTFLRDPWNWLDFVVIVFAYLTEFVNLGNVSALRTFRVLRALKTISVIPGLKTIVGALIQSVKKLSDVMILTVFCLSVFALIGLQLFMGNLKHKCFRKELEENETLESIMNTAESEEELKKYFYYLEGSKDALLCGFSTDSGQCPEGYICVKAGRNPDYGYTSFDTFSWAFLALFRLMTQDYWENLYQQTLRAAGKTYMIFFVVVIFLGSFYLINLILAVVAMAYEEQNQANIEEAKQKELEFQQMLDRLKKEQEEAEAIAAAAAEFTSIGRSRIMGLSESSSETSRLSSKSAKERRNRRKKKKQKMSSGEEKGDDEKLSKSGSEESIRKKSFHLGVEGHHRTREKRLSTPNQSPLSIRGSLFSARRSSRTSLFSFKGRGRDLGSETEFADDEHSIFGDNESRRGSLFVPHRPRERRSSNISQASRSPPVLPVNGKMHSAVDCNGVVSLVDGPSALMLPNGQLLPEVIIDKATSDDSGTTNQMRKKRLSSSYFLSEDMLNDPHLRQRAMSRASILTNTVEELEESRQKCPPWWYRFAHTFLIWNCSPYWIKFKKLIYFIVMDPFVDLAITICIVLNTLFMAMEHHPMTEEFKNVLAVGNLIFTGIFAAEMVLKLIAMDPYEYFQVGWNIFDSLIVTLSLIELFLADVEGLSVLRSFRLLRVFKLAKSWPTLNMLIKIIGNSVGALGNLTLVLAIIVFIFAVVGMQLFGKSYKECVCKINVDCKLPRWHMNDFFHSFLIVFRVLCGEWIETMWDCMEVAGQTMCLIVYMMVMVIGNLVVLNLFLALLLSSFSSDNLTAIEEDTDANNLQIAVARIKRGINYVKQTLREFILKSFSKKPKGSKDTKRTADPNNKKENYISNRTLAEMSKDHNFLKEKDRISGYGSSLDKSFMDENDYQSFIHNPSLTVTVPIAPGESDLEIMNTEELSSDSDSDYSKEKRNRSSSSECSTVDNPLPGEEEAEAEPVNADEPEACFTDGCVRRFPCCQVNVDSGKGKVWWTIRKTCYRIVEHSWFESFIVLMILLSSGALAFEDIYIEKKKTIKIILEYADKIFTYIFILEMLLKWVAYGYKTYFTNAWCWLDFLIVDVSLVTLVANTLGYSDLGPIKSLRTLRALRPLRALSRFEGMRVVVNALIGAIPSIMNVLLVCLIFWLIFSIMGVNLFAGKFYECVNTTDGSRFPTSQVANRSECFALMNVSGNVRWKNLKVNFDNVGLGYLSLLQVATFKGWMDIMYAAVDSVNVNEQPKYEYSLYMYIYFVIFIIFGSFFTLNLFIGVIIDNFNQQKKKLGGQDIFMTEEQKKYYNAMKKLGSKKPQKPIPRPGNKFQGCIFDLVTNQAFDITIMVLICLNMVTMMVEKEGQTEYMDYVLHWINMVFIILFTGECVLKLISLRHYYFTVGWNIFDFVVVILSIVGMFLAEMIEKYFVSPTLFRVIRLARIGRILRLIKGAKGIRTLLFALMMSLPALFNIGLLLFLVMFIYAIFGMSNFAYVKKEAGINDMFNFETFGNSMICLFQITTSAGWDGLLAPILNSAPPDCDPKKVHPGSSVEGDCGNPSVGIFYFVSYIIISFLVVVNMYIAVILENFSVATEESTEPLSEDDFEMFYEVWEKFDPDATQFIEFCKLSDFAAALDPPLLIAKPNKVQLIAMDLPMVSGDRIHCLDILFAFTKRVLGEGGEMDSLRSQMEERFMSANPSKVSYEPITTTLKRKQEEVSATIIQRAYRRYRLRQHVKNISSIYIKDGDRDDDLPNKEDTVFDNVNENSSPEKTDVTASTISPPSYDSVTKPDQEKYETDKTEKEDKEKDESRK

| Binder | Nav1.7 inhibition (%) at 25 µg/ml, automated patch clamp on HEK cells [1] | inhibition of Nav1.7 currents at 25 µg/ml, automated Patch Clamp [2] |
| --- | --- | --- |
| B1 | 46% | 26% |
| B2 | 27% |  |
| B3 | 41% |  |
